Reference: publication PMC10349104
pKd: −log10 of the molar value. Values joined by “and” are separate entries in the source; they are usually repeats but may differ in a detail not shown here. Identical values can stand only once.

What was measured:
Experiment in all cases: SPR
[1] = biological target: EVA-A(DC) (Amblyomma americanum)
[2] = biological target: EVA-A(Y44A) (Amblyomma americanum)
[3] = biological target: EVA-A(Y44A) (A. americanum)
[4] = biological target: EVA-A(L39P) (Amblyomma americanum)
[5] = biological target: EVA-A(1-98) (A. americanum)
[6] = biological target: EVA-A(L39P) (A. americanum)
[7] = biological target: EVA-A(21-102) (A. americanum)
[8] = biological target: EVA-A(DN) (Amblyomma americanum)
[9] = biological target: EVA-A(C8) (Amblyomma americanum)
[10] = biological target: EVA-A(C8) (A. americanum)

Sequence of CCL23 (P55773 22-120): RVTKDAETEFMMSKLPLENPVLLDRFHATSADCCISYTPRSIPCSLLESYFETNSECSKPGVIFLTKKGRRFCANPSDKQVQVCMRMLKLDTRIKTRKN
Sequence of CCL2 (P13500 24-99): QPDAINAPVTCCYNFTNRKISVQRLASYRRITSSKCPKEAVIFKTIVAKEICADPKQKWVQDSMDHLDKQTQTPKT
Sequence of CCL15 (Q16663 22-113): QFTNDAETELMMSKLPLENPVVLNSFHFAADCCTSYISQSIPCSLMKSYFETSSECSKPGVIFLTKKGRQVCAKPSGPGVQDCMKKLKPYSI
Sequence of CCL17 (Q92583 24-94): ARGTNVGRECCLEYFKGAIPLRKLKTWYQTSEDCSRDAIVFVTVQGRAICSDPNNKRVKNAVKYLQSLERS
Sequence of CCL8 (P80075 24-99): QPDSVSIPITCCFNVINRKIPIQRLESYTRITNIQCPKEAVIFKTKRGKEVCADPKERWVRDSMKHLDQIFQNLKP
Sequence of CCL27 (Q9Y4X3 25-112): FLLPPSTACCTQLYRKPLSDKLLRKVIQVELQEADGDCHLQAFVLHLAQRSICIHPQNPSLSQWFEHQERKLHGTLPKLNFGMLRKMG

Substance | kon [1] | pKd [1] | pKd [2] | kon [2] | pKd [3] | koff [3] [s⁻¹] | kon [3] [M⁻¹ s⁻¹] | pKd [4] | koff [4] | kon [4] | pKd [5] | koff [5] [s⁻¹] | kon [5] [M⁻¹ s⁻¹] | pKd [6] | koff [6] [s⁻¹] | kon [6] [M⁻¹ s⁻¹] | koff [2] | pKd [7] | koff [7] [s⁻¹] | kon [7] [M⁻¹ s⁻¹] | Kd [4] | other results
CCL14 (ligand) | 206000 M⁻¹ s⁻¹ and 297000 M⁻¹ s⁻¹ and 214000 M⁻¹ s⁻¹ | – | – | – | – | – | – | – | – | – | – | – | – | – | – | – | – | – | – | – | – | –
CCL27 (from UniProt Q9Y4X3 25-112) (ligand) | 111000 M⁻¹ s⁻¹ and 69300 M⁻¹ s⁻¹ and 105000 M⁻¹ s⁻¹ | 7.43 and 7.28 and 7.45 | 7.23 and 6.72 and 7.10 | 51200 M⁻¹ s⁻¹ and 70200 M⁻¹ s⁻¹ and 34000 M⁻¹ s⁻¹ | 6.96 | 0.00639 | 52000 | 7.32 and 7.10 and 7.19 | 0.00218 s⁻¹ and 0.00268 s⁻¹ and 0.00356 s⁻¹ | 45300 M⁻¹ s⁻¹ and 34000 M⁻¹ s⁻¹ and 55000 M⁻¹ s⁻¹ | 7.38 | 0.00409 | 95000 | 7.19 | 0.00309 | 45000 | – | – | – | – | – | koff [1]: 0.00409 s⁻¹ and 0.00367 s⁻¹ and 0.0037 s⁻¹
CCL2 (from UniProt P13500 24-99) (ligand) | – | – | 6.96 and 6.72 and 7.15 | – | 6.91 | 0.032 | 291000 | 7.59 and 7.68 and 7.55 | 0.00858 s⁻¹ and 0.00729 s⁻¹ and 0.00847 s⁻¹ | 335000 M⁻¹ s⁻¹ and 353000 M⁻¹ s⁻¹ and 298000 M⁻¹ s⁻¹ | – | – | – | 7.60 | 0.036 | 329000 | – | – | – | – | – | –
CCL8 (from UniProt P80075 24-99) (ligand) | – | 6.73 and 7.05 and 6.67 | 8.35 and 8.40 and 8.61 | 307000 M⁻¹ s⁻¹ and 378000 M⁻¹ s⁻¹ and 737000 M⁻¹ s⁻¹ | 8.44 | 0.00156 | 474000 | 8.56 and 8.66 and 8.54 | 0.00242 s⁻¹ and 0.00205 s⁻¹ and 0.00312 s⁻¹ | 884000 M⁻¹ s⁻¹ and 949000 M⁻¹ s⁻¹ and 1.08e+06 M⁻¹ s⁻¹ | 6.79 | 0.0344 | 173000 | 8.59 | 0.00218 | 971000 | 0.00137 s⁻¹ and 0.0015 s⁻¹ and 0.0018 s⁻¹ | 6.77 | 0.0344 | 112000 | – | pKd [8]: 6.48 and 6.83 and 7.47
CCL15 (ligand) | 52500 M⁻¹ s⁻¹ and 52700 M⁻¹ s⁻¹ and 53700 M⁻¹ s⁻¹ | 7.51 and 7.48 | – | – | – | – | – | – | – | – | – | – | – | – | – | – | – | – | – | – | – | koff [1]: 0.00162 s⁻¹ and 0.00173 s⁻¹ and 0.00167 s⁻¹
CCL17 (from UniProt Q92583 24-94) (ligand) | – | – | 7.18 and 6.98 and 7.80 | – | 7.21 | – | – | 8.48 and 8.49 and 7.80 | – | – | > 10.00 | – | – | 8.13 | – | – | – | 8.98 | – | – | – | pKd [8]: 8.98 and 8.99; pKd [9]: 7.11 and 7.17 and 6.83; pKd [10]: 7.01
CCL15 (from UniProt Q16663 22-113) (ligand) | – | – | – | – | 6.79 | 0.0117 | 79000 | – | – | – | 7.50 | 0.00162 | 53000 | 7.58 | 0.00467 | 102000 | – | 7.47 | 0.00214 | 63000 | – | pKd [10]: 6.24; koff [10]: 0.0127 s⁻¹; kon [10]: 22000 M⁻¹ s⁻¹
CCL23 (from UniProt P55773 22-120) (ligand) | – | – | – | – | 7.73 | 0.00176 | 100000 | – | – | – | 9.35 | 2e-05 | 144000 | 8.94 | 0.00067 | 140000 | – | 9.29 | 4e-05 | 87000 | – | pKd [10]: 7.69; koff [10]: 0.00131 s⁻¹; kon [10]: 74000 M⁻¹ s⁻¹
CCL11(F11A) (from UniProt P51671 24-97) (ligand) | – | – | 8.58 and 8.53 and 8.54 | 884000 M⁻¹ s⁻¹ and 722000 M⁻¹ s⁻¹ and 801000 M⁻¹ s⁻¹ | 8.55 | 0.00226 | 802000 | 9.37 and 9.22 and 9.30 | 0.000383 s⁻¹ and 0.000365 s⁻¹ and 0.000304 s⁻¹ | 904000 M⁻¹ s⁻¹ and 606000 M⁻¹ s⁻¹ and 610000 M⁻¹ s⁻¹ | – | – | – | 9.29 | 0.00035 | 707000 | 0.00233 1/s (2×) and 0.00213 1/s | – | – | – | – | –
CCL16(L19A) (from UniProt O15467 24-120) (ligand) | – | – | 7.60 and 7.91 and 7.99 | 68100 M⁻¹ s⁻¹ and 109000 M⁻¹ s⁻¹ and 144000 M⁻¹ s⁻¹ | 7.80 | 0.00151 | 107000 | – | 0.000757 s⁻¹ and 0.000893 s⁻¹ and 0.000913 s⁻¹ | 492000 M⁻¹ s⁻¹ and 588000 M⁻¹ s⁻¹ and 599000 M⁻¹ s⁻¹ | – | – | – | 8.82 | 0.00085 | 560000 | 0.00171 s⁻¹ and 0.00134 s⁻¹ and 0.00147 s⁻¹ | – | – | – | 1.54 nM and 1.52 nM (2×) | –
